The nanobody polyreactivity screen of Harvey et al. (2022)

Test: yeast display, Sf9 membrane polyspecificity reagent, FACS + sequencing; frameworks hold sequencing errors
In short: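 In a synthetic yeast display library (Saccharomyces cerevisiae BJ5465), nanobody expression was induced with galactose for 36–48 hours. FACS gates were set low and high (top ~1%) using anti-HA fluorescence for expression and streptavidin fluorescence for binding of the Sf9 membrane reagent. Each polyreactivity label is drawn from the gate of origin.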

QVQHVESGGGLVQAGGILRLICDASGGIFAANAMGWYRPAPGQERELVAAITSVGSTYADSVKGRFTISRDNAKNTVYLQMNSLKPEDTAVYYCAADTESVIVWYEDDYWGQGTQVTVSS
polyreactivity (PSR sort gate): low polyreactivity

QVQLVESGGGLVQAGGSLRLSCAASGFTFEYNAMGGYRQDPGKERELVAAITTTGSTYYADSVKGRFTISRDNAKNTVYLQMNSLKPEDTAVYYCAADPVWRGYSYQFDYWGQGTQVTVSS
polyreactivity (PSR sort gate): low polyreactivity

QVQLVESGGGVVQAGGSLRLSCAASGGTFGKYAMGWYRQAPGNEREFVAAISKSGGSTFYADSVKGRFTISRDNAKNTVYLQMNSLKPEDTAVYYCAVRWYYRGRSLYDYWGQGTQVTVSS
polyreactivity (PSR sort gate): high polyreactivity

QVQLVESVGGLVQAGGSLRLSCAASGRIFRYYAMGWSRQAPGKERELVAGISRGTSTYYADSVKGRFTISRDNAKNTVYLQMNSLKPEDTAVYYCAKGSIQYFRPYTFYTWGQGTQVTVSS
polyreactivity (PSR sort gate): high polyreactivity

QVQLVESVGGLVQAGGSLRLICAASGSIFIGYAMGWYRQAPGKERELVAAISNSGGRTYYADSVKGRFTISRDYAKNTVYLQMNSLKPDDTAVYYCAARLRYRGRRYDYWGQGTQVTVSS
polyreactivity (PSR sort gate): high polyreactivity

PVQLVESGGGLVQAGGSLRLSCAACGSIIAGYAMGWYRQAPGKERELVAAISWSGGGTYYADSVKGRFTISRDNAKNTVYLQMNSLKPEDTAVYYCNAYGYRHRGNGYWGQGTQVTVSS
polyreactivity (PSR sort gate): high polyreactivity

QVQLVESGGGLVQAGGSLRLSCAASGSTFHGYDMGWYRQAPGKERELVAAITSSGDDTYYADSVKGRFTISRDNAKNTVYLQMNSLKPEDTAVYYCAAEYTEGYTHDYWGQGTQVNVSS
polyreactivity (PSR sort gate): low polyreactivity

QVQLVETGGGLVQAGGSLRLSCAASGRIFGDNAMGWYRQAPGKEREFVATINGSGGSTYYADSVKGRFTISRDNAKNTVYLKMNRLKPEDTAVYYCFVQQNYGYDYWGQGTQVTVSS
polyreactivity (PSR sort gate): low polyreactivity

QVQLVESGGGLVQAGGSLRLSCAASGNIFFGYAMGWYRQAPGKEREFVASITKIGGSTYYADSVQGRFTISRDNAKNTVYLQMNSLKPEHTAVYYCAKTILYDCDYWGQGTQVTVSS
polyreactivity (PSR sort gate): low polyreactivity

QVQIVESGGGLLQAGGSLRLSCAASGRIFRRNAMGWYRQATGKERELVAAISKSGGSTYYADSVKGRFTISRDNAKNTVYLQMNSLKPEDTAVYYCAAEYSDRYDYWGQGTQVTVSS
polyreactivity (PSR sort gate): high polyreactivity

QGQLVESGGGLVQAGGSLRLSCAASGRTFTAYAMGWYRQAPRKERELVASISSGSSTYYADSVKGRFTISRDNAKYTVYLQMNSLKPEDTAVYYCAARDGYRYYKGKRMGYWGQGTQVTVSS
polyreactivity (PSR sort gate): high polyreactivity

QVQLVESGGGLVQAGGSLRLSCAGSGSIFSNNAMGWYRQAPGKERELVAAISASGGSTYYADSVKGRFTISRDNAKNTVYLQMNSLKPEDTAVYYCAARGYGWGQGTQVTVSS
polyreactivity (PSR sort gate): high polyreactivity

QVQLVDSGGGLVQAGGSLRLSCAASGSIFLGYAMGWYRQAPGKVREFVAAITWSGGSTYYADSVKGRFTISRDIAKNTVYLQMNSLKQEDTAVYYCAVEIWIPTWYGLSGEYDYWGQGTQVTVSS
polyreactivity (PSR sort gate): low polyreactivity

QVQLVESGGGLVQAGGSLRLSCAASGRTFIFYAMGWYRQAPGKERELVAAISSSGSGTYYADSVKGRFTISRDNAKNTVYFQMNSLKPEDTAVYYCAADVVNSRRRPKYGYWGQGTQVTVSS
polyreactivity (PSR sort gate): low polyreactivity

QVQLVESGGGLVQAGGSLRLICAASGFTFADNSMAWYRQAPGKEREFVASITYSTGSTYADSEKGRVTISRDNAKNTVYLEMHSLKPEDTAVYYCAVDNISNWAVENDDWGQGTLVTVSS
polyreactivity (PSR sort gate): low polyreactivity

QVQLVESGGGLVQAGGSLRLSCAASGRIFYAYAMGLYRQAPGKERELVAAITWSGGSTYYADSVKGRFTISRDNAKNTVYLQMNSLKQEDTAVYYCAADLRVKYVHTYSYVWYRYDYWGQGTQVTVSS
polyreactivity (PSR sort gate): high polyreactivity

QGQLVESGGGLVQAGGSLRLSCAASGFIFDNNAMGWYRQAPGKERELVAAISFSAGSTYYADSVKGRFTISRDNAKNTVYLQMNSLNPEDTAVYYCNADDWWGGYDYWGQGTQVTVSS
polyreactivity (PSR sort gate): low polyreactivity

QVQLVESGGGLVQAGGSLRISCAPSGFIYSYAMGWYRQAPGKERELVASITLNGGSTYYADSVKGRFTISRDNAKNTVYLQMNSLKPEDTAVYYCNADRASLSIGGYYRLWYDYWGQGTQVTVSS
polyreactivity (PSR sort gate): high polyreactivity

QVQLVESGGGLVQAGGSLRLRCAASGSIIVPNAMGWYRQAPGKERELVAAISGRGGSTYYADSEKGRFTISRDNAKNTVSLQMKSLKPEDTAVYYCAAQDTYHSYGLYSWGQGTQVTVSS
polyreactivity (PSR sort gate): low polyreactivity

QVQHVESGGGLVQAGGSLLLSCAASGSTFARYAMGWYRQPPGKERELVAAISRSGSNTYYADSVKGRFTISRDNAKNTVYLQMNSLKPEDTAVYYCNRTHRQSFSKLDYWGQGTQVTVSS
polyreactivity (PSR sort gate): high polyreactivity

QVQLVESGGGLVQAGGSLRLSCAASGRTLRYYAMGWYRQAPGKERELVASISIGGSTFYADSVKGRFTISRDNAKNTVYLQMNSLKPEDTAVYYCAAENFWQTKEYDYWGQGTQVTVSS
polyreactivity (PSR sort gate): low polyreactivity

HVQLVESGGGLFQAGGSLRLCCAASGSISGLYAMGWYRQAPGKERELVAAITLRDGTTSYADSVKGRFTISRDNAKITVYLQMNSLKPEDTDVYYCAAVDRDSKCSVPTLDHWGQGTQVTVSS
polyreactivity (PSR sort gate): low polyreactivity

QVQLVESGGGLVQAGGSLRLSCAASGSTLVYNAMGWYRQAPGKERELVAAISRSGGITYYADSVKGRFTISRDNAKNTVYLQMNSLKPEDTAVYYCNAVVRTRYRPGYDYDYWGQGTQVTVSS
polyreactivity (PSR sort gate): high polyreactivity

QVQLVESGGGLVQAGGSLRLSCAASGIIFSTYAMGWYRQAPGKERELVAAISSGGRTYYADSVKGRFTISRDNAKNTVYLQMNSLKPEDTAVYYCAASYYRYYSGWTPYYYWGQGTQVTVSS
polyreactivity (PSR sort gate): high polyreactivity

QVQLVESGGGLVQAGGSLRLSCAASGIIFRRYAMGWYRQAPGKERELVAAIRTSGGNTYYADSVKRRFTISRDNAKNTVYLQMNSLKPEDTAVYYCAARKYHYRYGYWGQGTQVTVSS
polyreactivity (PSR sort gate): high polyreactivity

QVQLVESGGGLVQAGGSLRLSCAASGSILWHNAKGWYRQAPGKEREFVAAISARGTRTYYADSVKGRFTISRDNAKNSVYLQMNSLKPEDTAVYYCAARYWDDRARAEDYWGQGTQVTVSS
polyreactivity (PSR sort gate): high polyreactivity

QVQLVESGGGLVQAGGSLRLSCAASGSTFYINTMGWYRQAPGKEREFVAAITWSGGSTYYADSVKGRFTISRDNAKNTVYLQMNSLKPEDTAVYYCAADLYVGDMDYWGQGTQVTVAS
polyreactivity (PSR sort gate): low polyreactivity

QVQLVESGGGLVQAGGSLRLSCAASGSIFGSNAMGWYRQAPGKERELVAAITNTGRTNYADSVKGRFTISRDNAKNTVYLQMNSLKPEDTAVYYCNTDCYEFTHFVGGWYQIIDYDYWGQGSQVTVSS
polyreactivity (PSR sort gate): low polyreactivity

QVHLVESGGGLVQAGGSLRLICAASGGTLWVNTMGWYRQAPGKERELVAAISRRGGSTYYADSVKGRFTISRDNAKNTVYLQMNSLKPEDTAVYYCAKGYSSHYWWAYDSWGQGTQVTVSS
polyreactivity (PSR sort gate): high polyreactivity

QVQLVESGGGLVQAGGSLRLSCAASGFTFSQYAMGWYRQAPGKERELVAAISRSGGSTYYADSVKGRFTISRDNAKNTVYLQMNSLKPEDTAVYYCAAQPGRRAGRSGFDYWGQCTQVTVSS
polyreactivity (PSR sort gate): high polyreactivity

QVQLVESGGGLVQAGGSLRLSCAASGRIFRGYAMGWYRQAPGTERELVAAISRRGGSTYYAASVKGRFTISRDNAKNTVYLQNNSLKPEDTAVYYCNADGVHYVAYAGGYWGQGTQVTVSS
polyreactivity (PSR sort gate): high polyreactivity

QVQLVESGGGLVQAGGSLRLSCAASGSIFCQYVMGWYRQAPGKERVLVAAISWSGPRTYYADSVKGRFTISRDNAKNTVDLQMNSLKPEDTAVYYCAARRLYAGHQYDYWGQGTQVTVSS
polyreactivity (PSR sort gate): high polyreactivity

QVQLVESGGGLVQAGGSLRLSCAASGSTFRRNVMGWYRQAPGKERELVAAISRSGGRTYYADSVKGRFTISRDNAKNTVYLQMNSLKPEDTAVYYCNATRAGENPDGGDEYWGQGTQVTVSS
polyreactivity (PSR sort gate): high polyreactivity

QVQLVESGGGLVKAGGSLRLSCAASGSTYQTYAMGWYRHAPGKERELVAAISFNGGSTYYADSVKGRFTISRDNAKNTVYLQMNSLKPEDTAVYYCAVEYTWASALYDGRHDYWGQGTQVTVSS
polyreactivity (PSR sort gate): high polyreactivity

QVQLVESGGGLVQAGGSLRLSCAASGNIFRSYAMGWYRQAPGKERELVAAISSSDDSTYYADSVKGRFTISRDNAKNTVYLQMNSLKPEDTAVYYCAADGWSWYKGYVGDDMDYWGQGTQVTVSS
polyreactivity (PSR sort gate): low polyreactivity

QVQLVESGGGLVQARGSLRLSCAASGRIFGLYAMGWYRQAPGKERELVASINSRGGSTNYADSVKGRFTISRDNAKNTVYLQMTSLKPEDTAVYYCNARFVYAYQRYYWGQGTQVTVSS
polyreactivity (PSR sort gate): high polyreactivity

QVQLVESGGGLVQAGGSLRISCAASGYTSIIYAMGWYRQAPGTERECVASIRGRSGSTYYADSVKGRFTISRDNAKNTVYLQMNSLKPEDTAVYYCAARARYVNWQGFDYWGQGTQVTVSS
polyreactivity (PSR sort gate): high polyreactivity

QVQLVESGGGLVQAGGSLRLSCAASGIIFQGYVMGWYRQAPGKERELVAVISRTGGSTYYADSVKGRFTISRDNAKNTVYLQMNSLKPEDTAVYYSSAGTPRLRYLQGHRMNYWGKGTQVTVSS
polyreactivity (PSR sort gate): high polyreactivity

QVQLQESGGGLVQAGGSLRLSCAASGSISYPRTMGWYSQAPGQEREFVAGIGVGGNTYYAESVKGRFTISSDNAKNTVYLQMNSQKPEDTAVYYCNAEWYYPYYYSRMDYWGLGTQVTVSS
polyreactivity (PSR sort gate): low polyreactivity

QVQLVESGGGLVQAGGSLPLSCAASGFIFYRYTMGWYRQAPGKERELVAAITRNGVSTYYADSVKGRFTISRDNAKNTVYLQMNSLKPEDTAVYYCAAQRYRTGDSWGQGTQVTVSS
polyreactivity (PSR sort gate): high polyreactivity

QVQLVESVGGLVQVGGSLRLSCAASGSILTDYGMGWYRQAPGKERELVAAITGSGGSTYYADSVKGRFTISRDNAKNTVYLQMNSLKPEDTAVYYCAKRHVGSRYLFDYWGQGTQVTVSS
polyreactivity (PSR sort gate): low polyreactivity

QVQLVESGGGLVQAGGSLRLSCAASGGTFERNAMGWYRQAPGKERELVAAITGSGGRTYYADSVKGRFTISRDNAKNTVYLHMNSLKPEDTAVYYCAAVPWWKYNYWGQGTQVTVSS
polyreactivity (PSR sort gate): high polyreactivity

QVQLVESGGGLVQAGGSLRLSCAASGSILCLNAMGWYRQAPGKERELVADITRGGSTYYADSVKGRFTISRDNAKNTVYLQMNSLKPEDTAVYYCAADAYTGQIPYYYFEHYYWGQGTQVTVSS
polyreactivity (PSR sort gate): high polyreactivity
